Experimental data reported in publication PMC9672302, “H2A.Z deposition by SWR1C involves multiple ATP-dependent steps” (Nature Communications, 2022).

Experiments:
SWR1C [1] = target: T1, SWR1C (Saccharomyces cerevisiae, UniProt Q05471); test: fluorescence polarization of SWR1C binding to labelled H2A nucleosome with added nucleotide (no constant for the nucleotide); conditions: 1 mM ADP, 10 nM 77N4-ATTO 647N nucleosome, 5 mM MgCl2, pH 7.6, room temperature; indirect, nucleotide modulates nucleosome affinity
T1 construct: gene SWR1; native multi-subunit remodeler complex purified from a yeast strain with FLAG-tagged Swr1, eluted with 3x FLAG peptide; tag kept; with SWR1-complex protein 5; SWR1-complex protein 3; Vacuolar protein sorting-associated protein 71; Actin-like protein ARP6; Vacuolar protein sorting-associated protein 72; SWR1-complex protein 4; SWR1-complex protein 7; Protein AF-9 homolog; Bromodomain-containing factor 1; Actin-related protein 4; Actin; RuvB-like protein 1; RuvB-like protein 2

[2] = target: H2A nucleosome (77N4-ATTO 647N nucleosome) (S. cerevisiae | not stated (X. laevis H3.1 or H. sapiens H3.2 C110A made) | X. laevis) (UniProt P04911); test: fluorescence polarisation; as a1 but with 1 mM ADP; apparent Kd
[3] = target: H2A nucleosome (77N4-ATTO 647N nucleosome) (S. cerevisiae | not stated (X. laevis H3.1 or H. sapiens H3.2 C110A made) | X. laevis) (UniProt P04911); test: fluorescence polarisation; as a1 but with 1 mM ATP; apparent Kd
[4] = target: H2A nucleosome (77N4-ATTO 647N nucleosome) (S. cerevisiae | not stated (X. laevis H3.1 or H. sapiens H3.2 C110A made) | X. laevis) (UniProt P04911); test: fluorescence polarisation; as a1 but with 1 mM AMP-PNP; apparent Kd
[5] = target: H2A nucleosome (77N4-ATTO 647N nucleosome) (S. cerevisiae | not stated (X. laevis H3.1 or H. sapiens H3.2 C110A made) | X. laevis) (UniProt P04911); test: fluorescence polarisation; 0-250 nM SWR1C titrated to 10 nM 77N4-ATTO 647N nucleosome, no nucleotide; 25 mM HEPES-KOH pH 7.6, 70 mM KCl, 0.2 mM EDTA, 5 mM MgCl2, 1 mM DTT, 0.1 mg/mL BSA; 20 min, room temperature; quadratic binding equation, global fit; apparent Kd
[6] = target: H2A.Z nucleosome (77N4-ATTO 647N nucleosome) (S. cerevisiae | not stated (X. laevis H3.1 or H. sapiens H3.2 C110A made) | X. laevis) (UniProt Q12692); test: as above
[7] = system: SWR1C (SWR1 complex) (Saccharomyces cerevisiae (FLAG-tagged Swr1 strain)); test: fluorescence polarization; conditions: FP: 25 mM HEPES-KOH pH 7.6, 70 mM KCl, 0.2 mM EDTA, 5 mM MgCl2, 1 mM DTT, 0.1 mg/mL BSA, 10 nM nucleosome, 1 mM nucleotide where added, 20 min, room …
[8] = target: H2A.Z nucleosomal product with SWR1C (tethered biotinTEG-117N4-ATTO 647N nucleosome after dimer exchange) (S. cerevisiae | not stated (X. laevis H3.1 or H. sapiens H3.2 C110A made) | X. laevis | yeast (endogenous in the FLAG-tagged Swr1 yeast strain)) (UniProt Q12692); test: single-molecule fluorescence colocalisation (TIRF, smFRET set-up); as a6 but with 100 uM ATP
[9] = target: H2A.Z nucleosomal product with SWR1C (tethered biotinTEG-117N4-ATTO 647N nucleosome after dimer exchange) (S. cerevisiae | not stated (X. laevis H3.1 or H. sapiens H3.2 C110A made) | X. laevis | yeast (endogenous in the FLAG-tagged Swr1 yeast strain)) (UniProt Q12692); test: single-molecule fluorescence colocalisation (TIRF, smFRET set-up); tethered biotinTEG-117N4-ATTO 647N, Cy3B-labeled H2A nucleosome with 30 nM SWR1C, 70 nM H2A.Z-H2B dimer, 70 nM Chz1; 0.5 uM ATP; time from the end of eviction (loss of FRET) to the loss of the Cy3B signal, Kaplan-Meier half-life; room temperature
[10] = target: SWR1C-nucleosome (SWR1C bound to the tethered biotinTEG-117N4-ATTO 647N H2A nucleosome) (S. cerevisiae | not stated (X. laevis H3.1 or H. sapiens H3.2 C110A made) | X. laevis | yeast (endogenous in the FLAG-tagged Swr1 yeast strain)) (UniProt P04911); test: single-molecule fluorescence colocalisation (TIRF, smFRET set-up); biotinTEG-117N4-ATTO 647N nucleosomes incubated with 25 nM SWR1C and tethered on a streptavidin-coated slide; 50 nM Cy3B-labeled H2A.Z-H2B dimer, 50 nM Chz1, 200 uM ATP, 10 nM 77N0 nucleosome in solution; room temperature; 5 min of acquisition
SWR1C [11] = target: T1, SWR1C; test: single-molecule FRET of H2A/H2B eviction from immobilised nucleosomes; assay type: biochemical; conditions: co-substrates yeast/Xenopus hybrid nucleosome 117N4, H2A.Z/H2B dimer, chaperone Chz1; 0-100 uM ATP; 4 mM MgCl2, pH 7.6, room temperature

Question: With `Nc1ncnc2c1ncn2[C@@H]1O[C@H](COP(=O)(O)OP(=O)(O)O)[C@@H](O)[C@H]1O` [ADP] as the molecule, how does the “fluorescence polarization of SWR1C binding to labelled H2A nucleosome with added” value (SWR1C [1]) read?
Answer: a decrease in binding was also observed with ADP

Question: With “SWR1C (from UniProt Q05471 1-1514; P38326 1-303; Q12509 1-438; Q03433 1-280; P31376 1-625) (complex)” as the molecule, how does the Kd [2] read?
Answer: 21 nM

Question: And the Kd [3]?
Answer: 31 nM

Question: And the Kd [4]?
Answer: 14 nM

Question: What about the Kd [5] of the same molecule?
Answer: 12 nM

Question: And the Kd [6]?
Answer: 25 nM

Question: How did the Kd ([7]; 1 mM ADP) turn out when 77N4 H2A nucleosome (ATTO 647N) was run?
Answer: 21 nM

Question: And the Kd ([7]; 1 mM AMP-PNP)?
Answer: 14 nM

Question: What about the Kd ([7]; 1 mM ATP) of the same molecule?
Answer: 31 nM

Question: What about the Kd ([7]; no nucleotide (apo), 5 replicates) of the same molecule?
Answer: 12 nM

Question: Which half-life of release (t release) [8] does the source give for “Cy3B-labeled H2A/H2B dimer (from UniProt P02293 5-131) (complex)” here?
Answer: 1.6 min

Question: What about the half-life of release (t release) [9] of the same molecule?
Answer: 3.65 min

Question: With “Cy3B-H2A.Z/H2B dimer (from UniProt P02293 5-131) (complex)” as the molecule, how does the mean lifetime of the bound state [10] read?
Answer: 34 s

Question: What about the percent of nucleosomes bound within 10 s [10] of the same molecule?
Answer: 50%

Question: What about the percent of nucleosomes that bound at least one dimer in 5 min [10] of the same molecule?
Answer: 89%

Question: How did the Kd ([7]; no nucleotide (apo)) turn out when 77N4 H2A.Z nucleosome (ATTO 647N) was run?
Answer: 25 nM

Question: For `Nc1ncnc2c1ncn2[C@@H]1O[C@H](COP(=O)(O)OP(=O)(O)OP(=O)(O)O)[C@@H](O)[C@H]1O` [ATP], which “single-molecule FRET of H2A/H2B eviction from immobilised nucleosomes” value (SWR1C [11]) is on record?
Answer: Priming is ATP-sensitive, as the duration of the priming phase (tprime) decreased with increasing ATP concentration
